Measured values from article PMC9741242, “Insights into the Structure of the Highly Glycosylated Ffase from Rhodotorula dairenensis Enhance Its Biotechnological Potential” (International Journal of Molecular Sciences, 2022).

Tests used:
[1] = molecular target: D188A-RdINVΔ21–139, truncated inactivated mutant of Rhodotorula dairenensis β-fructofuranosidase (Rhodotorula dairenensis CECT 1416); assay: crystal structure; D188A-RdINVΔ21–139, deglycosylated, complexes with fructose, sucrose or raffinose; PEG 3350, Bis-Tris pH 5.5; space group P2(1), four molecules in the asymmetric unit
[2] = molecular target: β-fructofuranosidase from Rhodotorula dairenensis (RdINV), wild type (Rhodotorula dairenensis CECT 1416); assay: crystal structure; wild-type RdINV, deglycosylated; 25% PEG 3350, 0.2 M ammonium acetate, 0.1 M Bis-Tris pH 5.5; space group C222(1), two molecules in the asymmetric unit

| Substance | stoichiometry N [1] | stoichiometry N [2] |
| --- | --- | --- |
| D188A-RdINVΔ21–139, truncated inactivated mutant of Rhodotorula dairenensis β-fructofuranosidase (enzyme) | 2 | – |
| β-fructofuranosidase from Rhodotorula dairenensis (RdINV), wild type (enzyme) | – | 2 |
